The results in this text go back to patent US20220411514A1, “ANTI-GAL3 ANTIBODIES AND METHODS OF USE FOR INSULIN RESISTANCE” (TrueBinding, Inc., priority 2021, published 2022).

Changes are numbered by the printed parent chain.

The target of one assay is T1, hGal3 peptide (Homo sapiens, UniProt P17931).
T1 construct: a library of 24 amino acid peptides representing portions of Gal3
Kind of assay: Gal3 peptide library binding ELISA (Example 2). The procedure:
To identify the epitopes to which Gal3 antibodies with and without Gal3-INSR blocking activity bound, a library of 24 amino acid peptides representing portions of Gal3, depicted in FIG. 18, was produced and the ability of each peptide to bind Gal3 antibodies was evaluated by ELISA. At least 2 μg/ml of hGal3 peptide in 50 μl of PBS or 0.1 μg/ml of full-length human Gal3 protein (GenScript) and human Galectin-3 protein (Acro Biosystems, GA3-H5129) were diluted in PBS (Corning, 21-030-CM) to concentrations of at least 2 μg/ml or 0.1 μg/ml, respectively, and added to the wells of a 96-well ELISA plate (Thermo Fisher, 44-2404-21). After incubating the plate at 4° C. overnight, the plate was washed three times with PBST (PBS with 0.05% Tween 20 [VWR, 0777]). The plate was then blocked for an hour with 2% BSA (EMD Millipore, 126609) in PBST at room temperature with gentle rocking. Thereafter, the 2% BSA in PBST was discarded and human Galectin-3 hybridoma supernatants or antibodies were diluted in 2% BSA in PBST to concentrations of at least 0.1 μg/ml and added to the wells. The plate was incubated for an hour at room temperature with gentle rocking and then washed three times with PBST. Afterwards, Goat Anti-Mouse IgG-HRP (Jackson ImmunoResearch, 115-036-1461) or Goat Anti-Rat IgG HRP (Abcam, ab205720) diluted in 2% BSA in PBST (1:4000) were added to the wells. The plate was incubated for 30 minutes to 1 hour at room temperature with gentle rocking and then washed three times with PBST. TMB substrate (Thermo Scientific, 34029) was then added to each well. The reaction was stopped with 1M HCl (JT Baker, 5620-02) and read using a plate reader (Molecular Devices) at absorbance of 450 nm.
For orientation: In an ELISA, binding on a coated surface is turned into a signal by an enzyme label.

Assay [1] has as its target T2, Human Gal3 peptides (Homo sapiens, UniProt P17931).
T2 construct: purchased LifeTein custom order
Description: Gal3 peptide binding ELISA (Example 8). The settings on record: antibody 5 μg/mL. The method, then:
(§1) Gal3 peptide binding activity of additional exemplary anti-Gal3 antibodies was assessed with the same peptides as described in FIG. 18 (SEQ ID NOs: 3-26). Human Gal3 peptides (LifeTein, custom order) and human Gal3 proteins (R&D Systems, 8259-GA; TrueBinding, QCB200349) were diluted in PBS (Corning, 21-030-CM) to concentrations of at least 100 μg/mL (peptides) or 1 μg/mL (proteins), and added to the wells of several 96-well ELISA plates (Thermo Fisher, 44-2404-21). After incubating the plates at 4° C. overnight, the plates were washed three times with PBST (PBS with 0.05% Tween 20 [VWR, 0777]). The plates were then blocked for an hour with 2% BSA (EMD Millipore, 126609) in PBST at room temperature with gentle rocking. Thereafter, the 2% BSA in PBST was discarded and Gal3-binding antibodies (reformatted hIgG4 [S228P]) were diluted in 2% BSA in PBST to concentrations of 5 μg/mL and added to the wells. The plates were incubated for an hour at room temperature with gentle rocking and then washed three times with PBST. Afterwards, Peroxidase AffiniPure F(ab′)2 Fragment Goat Anti-Human IgG (H+L) polyclonal antibody (Jackson ImmunoResearch, 109-036-003), was diluted in 2% BSA in PBST (1:4000) and added to the wells. The plates were incubated for 1 hour at room temperature with gentle rocking and then washed three times with PBST. TMB substrate (Thermo Scientific, 34029) was then added to each well. The reaction was stopped with 1M HCl (JT Baker, 5620-02) and read using a plate reader (Molecular Devices) at absorbance of 450 nm.

Assay [2] concerns Human Gal3 peptides. Kind of assay: Gal3 peptide binding ELISA (Example 8). The settings on record: antibody 5 μg/mL. The method, then:
as §1

The target in the next assay is T3, human Gal3 (Homo sapiens, UniProt P17931).
T3 construct: 6xHis (linker-spaced) (C); purchased AcroBio (Acro Biosystems) GA3-H5129
Description: Epitope binning, sandwich format, SPR Carterra LSA (Example 8). It is filed as binding. The method, then:
The epitope binning assay was done in a sandwich format on the high-throughput SPR-based Carterra LSA unit (CarterraBio, Salt Lake City, Utah). First, the purified antibodies were diluted to 10 μg/ml concentration in 10 mM NaOAc (pH 5.0) and then were covalently coupled via amine group to HC200M chip activated by EDC and S-NHS to immobilize antibodies to different positions of a 384-spot array. One hundred thirty-eight binning cycles were run on the array of immobilized antibodies. In each cycle, first, human Gal3 (AcroBio GA3-H5129) was injected over the entire array to bind to different antibodies (primary antibody), followed by one antibody (secondary antibody) selected among the panel of 150 anti-GAL3 antibodies tested. At the end of each cycle, the array was regenerated by 10 mM Glycine (pH 2.0) to remove bound antigen and secondary antibody from the array. The data analysis was done using the Epitope software by CarterraBio.

T3 sequence (P17931 whole entry): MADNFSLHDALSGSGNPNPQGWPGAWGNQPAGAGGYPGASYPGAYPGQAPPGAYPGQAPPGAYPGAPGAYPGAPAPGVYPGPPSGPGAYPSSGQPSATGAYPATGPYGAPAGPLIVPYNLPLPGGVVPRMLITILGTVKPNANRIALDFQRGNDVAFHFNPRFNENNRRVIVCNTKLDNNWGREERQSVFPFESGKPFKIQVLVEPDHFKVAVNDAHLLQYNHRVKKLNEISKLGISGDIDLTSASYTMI

B1: 2D10.2B2: anti-Gal3 antibody (antibody)
heavy: QVQLQQSGPELVKPGASVKISCKASGYTFTDYYINWVKQRPGQGLEWIGWIYPGSNDTKYNEKFKGKATLTVDTSSSTAYMQLGSLTSEDSAVYFCANYFGCSGWFFDVWGTGTTVTVSSAKTTPPSVYPLAPVCGDTTGSSVTLGCLVKGYFPEPVTLTWNSGSLSSGVHTFPAVLQSDLYTLSSSVTVTSSTWPSQSITCNVAHPASSTKVDKKIEPRGPTIKPCPPCKCPAPNAAGGPSVFIFPPKIKDVLMISLSPIVTCVVVDVSEDDPDVQISWFVNNVEVHTAQTQTHREDYNSTLRVVSALPIQHQDWMSGKEFKCKVNNKDLGAPIERTISKPKGSVRAPQVYVLPPPEEEMTKKQVTLTCMVTDFMPEDIYVEWTNNGKTELNYKNTEPVLDSDGSYFMYSKLRVEKKNWVERNSYSCSVVHEGLHNHHTTKSFSRTPGK
light: DIVMTQAAFSNPVTLGTSASISCRSSKSLLHSDGITYLYWYLQRPGQSPQLLIYRMSNLASGVPDRFSGSGSGTDFTLRISRVEAEDVGVYYCAQMIEFPLTFGAGTILELKRADVAPTVSIFPPSSEQLTSGGASVVCFLNNFYPKDINVKWKIDGSERQNGVLNSWTDQDSKDSTYSMSSTLTLTKDEYERHNSYTCEATHKTSTSPIVKSFNRNEC
modifications: 2D10.2B2 heavy chain peptide sequence; 2D10.2B2 light chain peptide sequence
notes: anti-Gal3 antibody
For the molecule B1, the “binding to Gal3 peptide 6 (amino acids 51-70, SEQ ID NO: 8)” value with hGal3 peptide is given as “bound”. Further, the “binding to Gal3 peptide 6 (SEQ ID NO: 8)” value with Human Gal3 peptides [1] is “bound”.

B2: 7D8.2D8: anti-Gal3 antibody (antibody)
heavy: EVQLVESGGGLVKPGGSLKLSCAASGFTFSSYAMSWVRQTPEKRLEWVATISDGGIYTYYPDNVKGRFTISRDNAKNNLFLQMSHLKSEDTAMYYCVRDGGYWGQGTTLTVSSAKTTPPSVYPLAPVCGDTTGSSVTLGCLVKGYFPEPVTLTWNSGSLSSGVHTFPAVLQSDLYTLSSSVTVTSSTWPSQSITCNVAHPASSTKVDKKIEPRGPTIKPCPPCKCPAPNAAGGPSVFIFPPKIKDVLMISLSPIVTCVVVDVSEDDPDVQISWFVNNVEVHTAQTQTHREDYNSTLRVVSALPIQHQDWMSGKEFKCKVNNKDLGAPIERTISKPKGSVRAPQVYVLPPPEEEMTKKQVTLTCMVTDFMPEDIYVEWTNNGKTELNYKNTEPVLDSDGSYFMYSKLRVEKKNWVERNSYSCSVVHEGLHNHHTTKSFSRTPGK
light: DVLMTQTPLSLPVSLGDQASISCRSSQSIVHSNGNTYLEWYLQKPGQSPKLLIYKVSNRFSGVPDRFSGSGSGTDFTLKISRVEAEDLGVYYCFQGSHVPLTFGAGTKLELKRADVAPTVSIFPPSSEQLTSGGASVVCFLNNFYPKDINVKWKIDGSERQNGVLNSWTDQDSKDSTYSMSSTLTLTKDEYERHNSYTCEATHKTSTSPIVKSFNRNEC
modifications: 7D8.2D8 heavy chain peptide sequence; 7D8.2D8 light chain peptide sequence
notes: anti-Gal3 antibody
For B2, in the assay with hGal3 peptide, the “binding to Gal3 peptide 7 (amino acids 61-80, SEQ ID NO: 9)” value is recorded as “bound”. Moreover, in the assay with Human Gal3 peptides [1], the “binding to Gal3 peptide 2 (SEQ ID NO: 4)” value is on record as “bound”, the “binding to Gal3 peptide 3 (SEQ ID NO: 5)” value was “bound” and the “binding to Gal3 peptide 17 (SEQ ID NO: 19)” value is “bound”.

B3: 15F10.2D6: anti-Gal3 antibody (antibody)
heavy: B2 heavy with T28A, I56V, P61T, N63H, K76E, N77D, F80Y
light: B2 light with S32N, A105G
modifications: 15F10.2D6 heavy chain peptide sequence; 15F10.2D6 light chain peptide sequence
notes: anti-Gal3 antibody
In the case of B3, the “binding to Gal3 peptide 7 (amino acids 61-80, SEQ ID NO: 9)” value with hGal3 peptide is “bound”. Also, in the assay with Human Gal3 peptides [1], the “binding to Gal3 peptide 2 (SEQ ID NO: 4)” value is “bound”, the “binding to Gal3 peptide 3 (SEQ ID NO: 5)” value is on record as “bound” and the “binding to Gal3 peptide 4 (SEQ ID NO: 6)” value is reported as “bound”.

B4: 20D11.2C6: anti-Gal3 antibody (antibody)
heavy: EVQLQQSGPELVKPGASVKISCKASGYTFTDFYINWVKQSHGKSLEWIGDINPKNGGINYNPKFKIKATLTVDKSSSTSYMDLRGLTSEDSAVYYCTSGYGFPYWGQGTLVTVSAAKTTPPSVYPLAPVCGDTTGSSVTLGCLVKGYFPEPVTLTWNSGSLSSGVHTFPAVLQSDLYTLSSSVTVTSSTWPSQSITCNVAHPASSTKVDKKIEPRGPTIKPCPPCKCPAPNAAGGPSVFIFPPKIKDVLMISLSPIVTCVVVDVSEDDPDVQISWFVNNVEVHTAQTQTHREDYNSTLRVVSALPIQHQDWMSGKEFKCKVNNKDLGAPIERTISKPKGSVRAPQVYVLPPPEEEMTKKQVTLTCMVTDFMPEDIYVEWTNNGKTELNYKNTEPVLDSDGSYFMYSKLRVEKKNWVERNSYSCSVVHEGLHNHHTTKSFSRTPGK
light: DIQMNQSPSSLSASLGDTITITCRASQNIYIWLSWYQQKPGNIPKLLIYKASNLHTGVPSRFSGSGSGTDFTLTISTLQPEDIATYFCLQGQSYPLTFGAGTKLEMKRADVAPTVSIFPPSSEQLTSGGASVVCFLNNFYPKDINVKWKIDGSERQNGVLNSWTDQDSKDSTYSMSSTLTLTKDEYERHNSYTCEATHKTSTSPIVKSFNRNEC
modifications: 20D11.2C6 heavy chain peptide sequence; 20D11.2C6 light chain peptide sequence
notes: anti-Gal3 antibody
Regarding B4, in the assay with hGal3 peptide, the “binding to Gal3 peptide 1 (amino acids 1-20, SEQ ID NO: 3)” value was “bound” and the “binding to Gal3 peptide 7 (amino acids 61-80, SEQ ID NO: 9)” value is “bound”. In addition, in the assay with Human Gal3 peptides [1], the “binding to Gal3 peptide 1 (SEQ ID NO: 3)” value is reported as “bound”, the “binding to Gal3 peptide 7 (SEQ ID NO: 9)” value is given as “bound” and the “binding to Gal3 peptide 8 (SEQ ID NO: 10)” value is “bound”.

B5: 847.11D6: anti-Gal3 antibody (antibody, V domains shown)
VH: EVKLQQSGPELMKPGTSMKISCKASGYSFTGYTMNWVKQSHGKNLEWIGLINPYNGGTNYNQKFRGKATLSVDKSSNTAYMELLSLTSEDSAVYYCARKDDYYGSSPYALDYWGQGTSVTVSS
VL: DIVMTQSPASLAVSLGQRATISCRASESVENHVNSFMHWFQQKPGQPPKLLIYRASNLQSGIPARFSGSGSRTDFTLTINPVEADDVATYYCQQNNEVPYTFGGGTKLEIK
Regarding B5, the “binding to any of the tested Gal3 peptides” value with Human Gal3 peptides [2] was “not found to bind”. Further, in the assay with human Gal3, the “epitope bin (mutual competitive binding for Gal3)” value is “CRD”.
